This is an account of results in CN113336845A (LANZHOU VETERINARY RES INST CAAS, dated 2021).

The target in the assay is T1, 融合蛋白3AN (FMDV 3A epitope fused to PRRSV N protein).
T1 construct: also called 3AN融合蛋白; 3AN蛋白抗原
The assay can be described thus: ELISA, biotin-labelled C8 detects 3AN captured by 3A24.

B1: 猪繁殖与呼吸综合征病毒核衣壳蛋白的猪源单个B细胞抗体C8 (antibody, V domains shown)
VH: GLVQPGGSLRLSCVASGFTFSSYIVTWVRQSPGKGLEWLAGTGVGEYALYYRNSVRGRFTLSRDNSQNTAYLQMNSLRVEETGRYFCRRGAAESVDLWGPGVEVVVSS
VL: QEPAMSVSLGGTVTLTCAFSSGSVTRSHWPSWFQLTPGQPPRTLIVSTDSRPTGVPSRFSGAISGYKAALTITGAQPEDEADYVCGVYFTFTKRPFGGGTHLTVLG
notes: also called C8单抗; 单克隆抗体C8
B1: the binding result is given as “binds”.
